Laboratory results published in article PMC8277567, “Thermostable D-amino acid decarboxylases derived from Thermotoga maritima diaminopimelate decarboxylase” (Protein Engineering, Design and Selection, 2021).

Columns and labels:
[1] = tested on: N[C@H](CCC[C@H](N)C(=O)O)C(=O)O; assay: purified protein; details: 100 mM TEA-HCl pH 7.8, PLP, 10 mM MgCl2, 30 C, DAP 0-10 mM
[2] = tested on: NC(CCCCC(=O)O)C(=O)O; assay: purified protein; details: similar conditions to wild-type assay; 2-APA 0-10 mM; racemic substrate

**Q.** What does the source list for “TmDAPDC (diaminopimelate decarboxylase from T. maritima) (Thermotoga maritima MSB8)”?
**A.** Km [1]: 0.27 (0.06) mM; kcat [1]: 0.075 s⁻¹

**Q.** What does the source list for “TmDAPDC (diaminopimelate decarboxylase from T. maritima) (Thermotoga maritima MSB8; E315T)”?
**A.** Km [2]: 0.32 (0.03) mM; kcat [2]: 0.2 s⁻¹
